Source: the Immune Epitope Database (IEDB)

How the values were obtained:
HLA-B*51:01 [1] = test: IEDB peptide-MHC binding, purified MHC/direct/fluorescence; filed as Kd, often an IC50 or EC50 that approximates it; ≥ and ≤ were set here for values at or beyond the usual limits of such assays; conditions: source organism: human gammaherpesvirus 4
HLA-B*07:02 [2] = test: IEDB peptide-MHC binding, purified MHC/competitive/fluorescence; filed as Kd, often an IC50 or EC50 that approximates it; ≥ and ≤ were set here for values at or beyond the usual limits of such assays
HLA-A*02:01 = test: as above
HLA-A*02:03 [3] = test: as above
HLA-A*02:11 [4] = test: as above
HLA-A*02:12 [5] = test: as above
HLA-A*02:19 [6] = test: as above
HLA-A*03:01 [7] = test: as above
HLA-A*24:03 [8] = test: as above
HLA-A*26:01 = test: as above
HLA-A*29:02 = test: as above
HLA-B*15:01 = test: as above
HLA-B*18:01 = test: as above
HLA-B*27:03 = test: as above
HLA-B*39:01 = test: as above
HLA-B*46:01 = test: as above
HLA-B*51:01 [9] = test: as above
HLA-B*57:01 = test: as above
HLA-C*03:03 = test: IEDB peptide-MHC binding, purified MHC/direct/fluorescence; filed as Kd, often an IC50 or EC50 that approximates it; ≥ and ≤ were set here for values at or beyond the usual limits of such assays; conditions: source organism: Vaccinia virus WR
HLA-A*02:02 = test: IEDB peptide-MHC binding, purified MHC/competitive/radioactivity; filed as Kd, often an IC50 or EC50 that approximates it; ≥ and ≤ were set here for values at or beyond the usual limits of such assays; conditions: source organism: Vaccinia virus WR
HLA-A*02:03 [10] = test: as above; conditions: source organism: Vaccinia virus WR
HLA-A*02:06 = test: as above; conditions: source organism: Vaccinia virus WR
HLA-A*68:02 [11] = test: as above; conditions: source organism: Vaccinia virus WR
HLA-B*27:05 = test: IEDB peptide-MHC binding, purified MHC/competitive/fluorescence; filed as Kd, often an IC50 or EC50 that approximates it; ≥ and ≤ were set here for values at or beyond the usual limits of such assays; conditions: source organism: Influenza A virus (A/swine/Hong Kong/81/1978(H3N2))
HLA-A*02:03 [12] = test: IEDB peptide-MHC binding, purified MHC/direct/fluorescence; filed as Kd, often an IC50 or EC50 that approximates it; ≥ and ≤ were set here for values at or beyond the usual limits of such assays
HLA-A*02:11 [13] = test: as above
HLA-A*02:12 [14] = test: as above
HLA-A*02:16 = test: as above
HLA-A*02:19 [15] = test: as above
HLA-A*03:01 [16] = test: as above
HLA-A*23:01 = test: as above; conditions: source organism: Influenza A virus (A/ferret/Maryland/P10-UMD/2008(H9N2))
HLA-A*24:03 [17] = test: as above; conditions: source organism: Influenza A virus (A/ferret/Maryland/P10-UMD/2008(H9N2))
HLA-A*68:02 [18] = test: as above
HLA-A*69:01 = test: IEDB peptide-MHC binding, purified MHC/competitive/fluorescence; filed as Kd, often an IC50 or EC50 that approximates it; ≥ and ≤ were set here for values at or beyond the usual limits of such assays
HLA-C*06:02 = test: IEDB peptide-MHC binding, purified MHC/direct/fluorescence; filed as Kd, often an IC50 or EC50 that approximates it; ≥ and ≤ were set here for values at or beyond the usual limits of such assays
HLA-B*07:02 [19] = test: as above; conditions: source organism: Sudan ebolavirus - Maleo (1979)
HLA-B*15:17 = test: IEDB peptide-MHC binding, purified MHC/competitive/fluorescence; filed as Kd, often an IC50 or EC50 that approximates it; ≥ and ≤ were set here for values at or beyond the usual limits of such assays; conditions: source organism: Zaire ebolavirus
HLA-A*11:01 = test: as above; conditions: source organism: Influenza A virus (A/swine/Scotland/410440/94(H1N2))
[20] = source organism: Vibrio cholerae 2740-80
[21] = source organism: Escherichia coli str. K-12 substr. MG1655
[22] = source organism: Influenza A virus (A/ferret/Maryland/P10-UMD/2008(H9N2))
[23] = source organism: Influenza A virus (A/Victoria/1968(H3N2))
[24] = source organism: Zaire ebolavirus
[25] = source organism: Yersinia pestis Antiqua

In the case of HPVGEADYFEY, the Kd (HLA-B*51:01 [1]) is reported as no less than 20 µM and the Kd (HLA-B*07:02 [2]; source organism: Human herpesvirus 4 strain B95-8) is reported as no less than 20 µM.

YEPEMQAQV gave a Kd (HLA-A*02:01; [20]) of no less than 20 µM, a Kd (HLA-A*02:03 [3]; [20]) of no less than 20 µM and a Kd (HLA-A*02:11 [4]; [20]) of no less than 20 µM. It also gave a Kd (HLA-A*02:12 [5]; [20]) of no less than 20 µM, a Kd (HLA-A*02:19 [6]; [20]) of 0.845 µM and a Kd (HLA-A*03:01 [7]; [20]) of no less than 20 µM. The Kd (HLA-A*24:03 [8]; [20]) was no less than 20 µM, the Kd (HLA-A*26:01; [20]) was no less than 20 µM and the Kd (HLA-A*29:02; [20]) was no less than 20 µM. For the same sequence, the Kd (HLA-B*15:01; [20]) was no less than 20 µM, the Kd (HLA-B*18:01; [20]) was no less than 20 µM and the Kd (HLA-B*27:03; [20]) was no less than 20 µM. The Kd (HLA-B*39:01; [20]) was no less than 20 µM, the Kd (HLA-B*46:01; [20]) was no less than 20 µM and the Kd (HLA-B*51:01 [9]; [20]) was no less than 20 µM. The Kd (HLA-B*57:01; [20]) was no less than 20 µM.

With YIYGIPLSL the Kd (HLA-C*03:03) was no more than 0.001 µM, the Kd (HLA-A*02:02) was 0.46 µM and the Kd (HLA-A*02:03 [10]) was 13.1 µM. It also gave a Kd (HLA-A*02:06) of 11.5 µM and a Kd (HLA-A*68:02 [11]) of 1.87 µM.

In the case of APTADVAKI, the Kd (HLA-B*07:02 [2]; [21]) is reported as 0.868 µM and the Kd (HLA-B*51:01 [9]; [21]) is reported as no less than 20 µM.

For GRIQDLEKY, the Kd (HLA-B*27:05) was 0.112 µM.

Sequence NMDKAVKLY has a Kd (HLA-A*02:03 [12]; [22]) of no less than 20 µM, a Kd (HLA-A*02:11 [13]; [22]) of no less than 20 µM and a Kd (HLA-A*02:12 [14]; [22]) of no less than 20 µM. The Kd (HLA-A*02:16; [22]) was no less than 20 µM, the Kd (HLA-A*02:19 [15]; [22]) was no less than 20 µM and the Kd (HLA-A*03:01 [16]; [22]) was no less than 20 µM. For the same sequence, the Kd (HLA-A*23:01) was no less than 20 µM, the Kd (HLA-A*24:03 [17]) was no less than 20 µM and the Kd (HLA-A*68:02 [18]; [22]) was no less than 20 µM. For the same sequence, the Kd (HLA-A*02:01; [23]) was no less than 20 µM, the Kd (HLA-A*26:01; [23]) was no less than 20 µM and the Kd (HLA-A*69:01; [23]) was no less than 20 µM. The Kd (HLA-B*15:01; [23]) was no less than 20 µM, the Kd (HLA-B*27:03; [23]) was no less than 20 µM and the Kd (HLA-B*39:01; [23]) was no less than 20 µM. For the same sequence, the Kd (HLA-B*46:01; [23]) was no less than 20 µM, the Kd (HLA-B*51:01 [9]; [23]) was no less than 20 µM and the Kd (HLA-B*57:01; [23]) was no less than 20 µM.

YRTATLRTL was tested, and the Kd (HLA-C*06:02; source organism: human gammaherpesvirus 4) was 0.009 µM.

RARLWPRSM was tested, and the Kd (HLA-C*06:02; source organism: Mycobacterium tuberculosis variant bovis BCG str. Pasteur 1173P2) was 0.701 µM.

Sequence TPSGKRLQI has a Kd (HLA-A*02:03 [12]; [24]) of no less than 20 µM, a Kd (HLA-A*02:11 [13]; [24]) of no less than 20 µM and a Kd (HLA-A*02:12 [14]; [24]) of no less than 20 µM. It also gave a Kd (HLA-A*02:16; [24]) of no less than 20 µM, a Kd (HLA-A*02:19 [15]; [24]) of no less than 20 µM and a Kd (HLA-A*03:01 [16]; [24]) of no less than 20 µM. The Kd (HLA-A*68:02 [18]; [24]) was no less than 20 µM, the Kd (HLA-B*07:02 [19]) was 0.0356 µM and the Kd (HLA-A*02:01; [24]) was no less than 20 µM. For the same sequence, the Kd (HLA-A*26:01; [24]) was no less than 20 µM, the Kd (HLA-A*69:01; [24]) was no less than 20 µM and the Kd (HLA-B*15:01; [24]) was no less than 20 µM. For the same sequence, the Kd (HLA-B*15:17) was no less than 20 µM, the Kd (HLA-B*18:01; [24]) was no less than 20 µM and the Kd (HLA-B*27:03; [24]) was no less than 20 µM. For the same sequence, the Kd (HLA-B*39:01; [24]) was no less than 20 µM, the Kd (HLA-B*46:01; [24]) was no less than 20 µM and the Kd (HLA-B*51:01 [9]; [24]) was no less than 20 µM. It also gave a Kd (HLA-B*57:01; [24]) of no less than 20 µM.

Sequence PLTNQRYRV has a Kd (HLA-A*02:01; [25]) of no less than 20 µM, a Kd (HLA-A*02:03 [3]; [25]) of no less than 20 µM and a Kd (HLA-A*02:11 [4]; [25]) of no less than 20 µM. It also gave a Kd (HLA-A*02:12 [5]; [25]) of no less than 20 µM, a Kd (HLA-A*02:19 [6]; [25]) of 0.797 µM and a Kd (HLA-A*03:01 [7]; [25]) of no less than 20 µM. The Kd (HLA-A*24:03 [8]; [25]) was no less than 20 µM, the Kd (HLA-A*26:01; [25]) was no less than 20 µM and the Kd (HLA-A*29:02; [25]) was no less than 20 µM. For the same sequence, the Kd (HLA-B*15:01; [25]) was no less than 20 µM, the Kd (HLA-B*18:01; [25]) was no less than 20 µM and the Kd (HLA-B*27:03; [25]) was no less than 20 µM. For the same sequence, the Kd (HLA-B*39:01; [25]) was no less than 20 µM, the Kd (HLA-B*46:01; [25]) was no less than 20 µM and the Kd (HLA-B*51:01 [9]; [25]) was no less than 20 µM. The Kd (HLA-B*57:01; [25]) was no less than 20 µM.

KVYKTYFEK was tested, and the Kd (HLA-A*11:01) was 0.0047 µM.
